Data set [1] addresses T1, wtCas12a (Francisella novicida, UniProt A0Q7Q2 1-1300). The experiment in a line: Mg2+.
Data set [2] has as its target T1, wtCas12a. The experiment in a line: Mg2+. The source holds these as a separate data set.

Read-outs that look alike come from different tables or passages of the source.

T1 sequence (A0Q7Q2 whole entry): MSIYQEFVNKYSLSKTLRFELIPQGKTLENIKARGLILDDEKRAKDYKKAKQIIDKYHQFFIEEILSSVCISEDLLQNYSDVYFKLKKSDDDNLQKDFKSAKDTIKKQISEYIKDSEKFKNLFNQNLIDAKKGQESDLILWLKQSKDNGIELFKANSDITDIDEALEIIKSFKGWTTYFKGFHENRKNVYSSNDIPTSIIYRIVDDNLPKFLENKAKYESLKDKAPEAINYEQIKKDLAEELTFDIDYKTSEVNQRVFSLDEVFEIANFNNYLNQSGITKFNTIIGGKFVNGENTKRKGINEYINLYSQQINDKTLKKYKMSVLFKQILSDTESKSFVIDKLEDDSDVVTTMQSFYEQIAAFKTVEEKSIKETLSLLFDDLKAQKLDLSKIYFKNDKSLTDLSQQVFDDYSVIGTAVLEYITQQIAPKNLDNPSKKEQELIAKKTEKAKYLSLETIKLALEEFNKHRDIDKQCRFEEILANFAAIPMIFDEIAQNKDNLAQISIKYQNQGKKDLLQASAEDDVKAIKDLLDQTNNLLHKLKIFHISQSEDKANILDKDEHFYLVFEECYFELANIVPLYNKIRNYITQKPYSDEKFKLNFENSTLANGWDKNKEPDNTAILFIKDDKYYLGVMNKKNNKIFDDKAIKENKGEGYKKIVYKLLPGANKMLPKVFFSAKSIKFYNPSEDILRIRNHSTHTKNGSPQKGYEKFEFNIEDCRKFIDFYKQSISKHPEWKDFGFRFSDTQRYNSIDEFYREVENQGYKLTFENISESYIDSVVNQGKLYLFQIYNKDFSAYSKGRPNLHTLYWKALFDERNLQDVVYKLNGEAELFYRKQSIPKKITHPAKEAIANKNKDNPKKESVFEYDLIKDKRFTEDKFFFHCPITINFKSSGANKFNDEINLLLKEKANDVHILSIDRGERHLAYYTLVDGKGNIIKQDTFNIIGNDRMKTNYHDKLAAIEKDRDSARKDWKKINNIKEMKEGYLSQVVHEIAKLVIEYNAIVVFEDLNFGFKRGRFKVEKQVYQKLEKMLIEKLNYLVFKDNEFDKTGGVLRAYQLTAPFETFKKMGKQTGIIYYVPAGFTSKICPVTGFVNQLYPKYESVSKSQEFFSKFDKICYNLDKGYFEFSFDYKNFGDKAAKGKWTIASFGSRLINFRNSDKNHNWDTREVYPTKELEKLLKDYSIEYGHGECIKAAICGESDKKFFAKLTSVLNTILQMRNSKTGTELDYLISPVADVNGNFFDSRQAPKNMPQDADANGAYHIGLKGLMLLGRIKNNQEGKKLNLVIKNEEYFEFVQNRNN

B1: crRNA-1 + lambda ssDNA (T-strand), no activator (mixed)
RNA: AAUUUCUACUGUUGUAGAUUGUAAAGAAACAGUAAGAUAAU
As for B1, in data set [1], the binding result is “no binding”.

B2: crRNA-1/lambda-activator + lambda ssDNA (T-strand) (mixed)
RNA: B1 RNA
DNA: CATCGGGTTGAGTATTATCTTACTGTTTCTTTACATAAAC
For the molecule B2, the binding result in data set [2] is recorded as “binds”.
